Experimental data: article PMC3776215

biological target: Recombinant human urokinase-type plasminogen activator receptor (uPAR) (human) (UniProt Q03405); assay: SPR
Sequence of UniProt Q03405 (Q03405 23-305): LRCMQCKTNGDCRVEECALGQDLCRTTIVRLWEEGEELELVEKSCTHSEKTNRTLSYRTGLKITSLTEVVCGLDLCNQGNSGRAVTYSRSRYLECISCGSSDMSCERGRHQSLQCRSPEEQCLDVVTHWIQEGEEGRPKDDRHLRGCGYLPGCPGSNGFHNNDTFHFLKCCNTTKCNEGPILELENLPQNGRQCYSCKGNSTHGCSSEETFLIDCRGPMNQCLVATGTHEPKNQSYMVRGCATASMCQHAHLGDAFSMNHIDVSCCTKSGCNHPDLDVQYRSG

IC50 [nM] | kon [M⁻¹ s⁻¹] | Kd [nM] | koff [s⁻¹] | Substance
6.7 | 620000 |  |  | AE105 (Asp-Cha-Phe-(D)Ser-(D)Arg-Tyr-Leu-Trp-Ser) (peptide)
5.9 |  | 7.7 | 0.0046 | CB-TE2A-AE105 (peptide)
> 1000 |  |  |  | CB-TE2A-AE105^mut (peptide)
6.1 | 400000 | 27 | 0.0108 | CB-TE2A-PA-AE105 (peptide)
> 1000 |  |  |  | CB-TE2A-PA-AE105^mut (peptide)
6.7 | 460000 | 9.4 | 0.0043 | DOTA-AE105 (peptide)
> 1000 |  |  |  | DOTA-AE105^mut (peptide)
